According to paper PMC2063677:

Key:
IMP KH3 = target: T1, IMP KH3 (Drosophila melanogaster, UniProt Q8IR99 301-396); assay: filter binding
T1 sequence: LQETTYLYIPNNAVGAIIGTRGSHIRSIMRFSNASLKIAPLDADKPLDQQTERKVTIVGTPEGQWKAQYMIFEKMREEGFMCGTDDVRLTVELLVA

IMP full length = target: T2, IMP full length (Drosophila melanogaster, UniProt Q8IR99 1-573); assay: filter binding
T2 sequence: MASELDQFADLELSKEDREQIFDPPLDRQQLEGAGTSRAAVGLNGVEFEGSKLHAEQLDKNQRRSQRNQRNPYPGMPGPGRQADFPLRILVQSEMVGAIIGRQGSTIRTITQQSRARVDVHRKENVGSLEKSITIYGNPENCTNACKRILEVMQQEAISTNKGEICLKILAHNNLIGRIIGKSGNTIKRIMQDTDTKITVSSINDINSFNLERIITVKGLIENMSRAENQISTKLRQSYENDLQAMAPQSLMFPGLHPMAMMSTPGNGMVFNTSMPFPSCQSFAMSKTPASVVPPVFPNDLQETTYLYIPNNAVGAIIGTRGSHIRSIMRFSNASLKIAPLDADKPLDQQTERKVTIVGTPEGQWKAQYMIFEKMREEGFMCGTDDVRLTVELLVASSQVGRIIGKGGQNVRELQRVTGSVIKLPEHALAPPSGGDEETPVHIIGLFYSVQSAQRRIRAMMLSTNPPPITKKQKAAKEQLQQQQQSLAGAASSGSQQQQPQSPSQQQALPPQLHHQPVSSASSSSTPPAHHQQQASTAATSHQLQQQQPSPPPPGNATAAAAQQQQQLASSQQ

B1: 3x 4-12-13 WT (UUUAU) (ssRNA)
RNA: GUUUUUAUUAUUUUUAUUUUUUCAACUUUUUAUUAUUUUUAUUUUUUCAACUUUUUAUUAUUUUUAUUUUUUCAAC
Does B1 bind (IMP KH3)?
Result: binds

Does B1 bind (IMP full length)?
Result: binds
